Assay results as given in the DeepSol protein solubility set.

assay: soluble on expression in E. coli; label from the status in PepcDB or PDB records

Soluble on expression in E. coli, not soluble:
MGSDKIHHHHHHMAGYNTYVVGKWHVGTKSVPEDYGIKGHNFDGYGYPGSGVYKNLVFNQPPTHSNRYKEWLEEKGYEIPEVSRAYFGDNPHLRVQELCGLLSGAKDQTIPYFIIDEAKKYIQESLDEGKPFFAWINFWGPHTPCIVPEPYYSMYRKEDVVLDKSFFTPLEGKPDHFRTISKMWGMWEASEDHWKEVITKFWGYITLIEDDNLVYLHDLTSTVFDLANQKVPESFEGQSVLPIMRQHQDNQRKGVLGQLAGHFVYFEQRMWRRKDYKLVFNATDVCELYNIRNDPEEMHNLFYDPQYNRIKKEMLEEMRAEMKRLNDPLENWVYRIIDEI, MGSDKIHHHHHHMAIGLSTYAFFWRASSRVPNPLGLAAMLEQTAESGAGVFQICDYAAVEALSPAELEKLRQRAVDLGIQLELGTRGLATDHLTRYLTMARALDVRFIRTMFNSATHKPTQDEALALLRCVLPEFEQYNIQLGLETYEQVKTRDVLAVVDAIDSPALGICLDPGNCVAALEYPHEVIELTASRVVNLHIKDFAFARQEGWVGFTYSGCLLGTGLLDYDALHQTIRPNERNINQIVEHWLPWQASAEETCRLEDAWTRHSLNYLYTRNPYANRSSHIL, MGSDKIHHHHHHMAILERKIIHEIDTSCSHIIYPQFVLPRHKHAEYEIMLFTQGSGKQFVGEGVADFQEGDIALIGSNVPHLHLCNSKLNPVANTVCSAGEALQFLPDIFPVHIENLPDYQEIYRLLRKSQYGVRFYDKGLYDEVKELFQEMDLLKHTNRLITILRILGRLTECRNIKLLSDVAYNGSNRLLEVNEPVNKVYTYLFNHFKEKVLLQEVADYVKQNPSALCRYFKQRTDKSIFQCLAEIRIEHACKLLSYSNLSVSQIAFESGFNSVPYFIKQFQSITEKTPGEYRELIGR, MGSDKIHHHHHHMAKERALTLEALRVMDAIDRRGSFAAAADELGRVPSALSYTMQKLEEELDVVLFDRSGHRTKFTNVGRMLLERGRVLLEAADKLTTDAEALARGWETHLTIVTEALVPTPAFFPLIDKLAAKANTQLAIITEVLAGAWERLEQGRADIVIAPDMHFRSSSEINSRKLYTLMNVYVAAPDHPIHQEPEPLSEVTRVKYRGIAVADTARERPVLTVQLLDKQPRLTVSTIEDKRQALLAGLGVATMPYPMVEKDIAEGRLRVVSPESTSEIDIIMAWRRDSMGEAKSWCLREIPKLFNGK, MGSDKIHHHHHHMAKGNKIPLTFHTYQDAATGTEVVRLTPPDVICHRNYFYQKCFFNDGSKLLFGAAFDGPWNYYLLDLKEQNATQLTEGKGDNTFGGFLSPNDDALYYVKNTRNLMRVDLTTLEEKTIYQVPDDWVGYGTWVANSDCTKMVGIEIKKEDWKPLTDWKKFQEFYFTNPCCRLIRVDLVTGEAETILQENQWLGHPIYRPGDDNTVAFCHEGPHDLVDARMWFINEDGTNMRKVKEHAEGESCTHEFWVPDGSAMIYVSYLKDDTNRYIRSIDPVTLEDRQLRVMPPCSHLMSNYDGTLLVGDGSDAPVDVQDDGGYKIENDPFLYVFNLKTGKEHRIAQHNTSWEVLEGDRQVTHPHPSFTPDNKQVLFTSDVDGKPALYLAKVPDSVWN, MGSDKIHHHHHHMAKHPLVMALAKVIIAAAWADGELSLDEVNDLKRLLAELGQTGGQFALTADDWAELEIYLYSPVEAAERARLIADLRDLIITPGQQQLVLQAIERLLIADRVLTPVEREVAQEIQRALTQDSQSLLFQIGRAFRLALGIRAGGPNREDLLPEFMRNRIYYALQIRLGQHIDEFGLDRDELHVLTLAGGLLARVAYVDKQVTPAEHDRIVAILKEWWQLDDTQAALVAEVALDESAASLDFFRLTKAFADATTVERRQRFLDALFAVALADGELSGAESAEISRITAAINLPHDSFVAARLRLPRQPGKRL, MGSDKIHHHHHHMAKIKHGFSGQRLIVYPFYVIEQALNNPLVADLVVHSMGYFPKAESHYIDRASGCGEYLLIYCTKGEGWYVLDGKRYVVPENHFFILPAEKPHQYGSSEHDPWYIYWAHFKGKKAKYISDQLQGVIPIDMDDNSRIGDRIAFFDELLNVLESGTDEATVNYVNLSFNHLIASFLYVKTYREAKFSKSKAENTFFISLATHFMTENLENKLTLKELASHFGYSESYMYRLFFKETGYAPMNYFLHMKIDRACQLLLHTNMKINQVALKLGFDDPYYFSRIFKKIVGTSPKDYRHSLPK, MGSDKIHHHHHHMAKVRKEDKLPLRMKQLGKIYRLIEQFEEISRIDLSKLSQLAPATITSLTRELIEKKLVIERAVQNTENRGRPAVGLCVSPFYWQSLCATLTYDHFDILLCELDGTTIAQEVYPLDLSDLSSLEQMLPCYFEDFLSKVGTKLSRPITFSIAVAGKLHHLSGFLQRLGEIELNVDLTSLFAGYFDIPIIVTEYFETWLLAESTLGSVIGYDDVIFLQIDDVINLSVLSKGVILQSDHKTCMNIDQIIVPRLYPMQDKINQHLFELERYQIHNQLTYKAFCQFIDLYYPNNNLINTTEKINFLCKKAQLQDPLALEILANIADIIAYILSNLVNLFSPEKIMFTSRLLSVKHVFLNQINQRLAHYLHNSKICEVMTSQYEWNSHEVIAAAIKQKIYDGSLLVYMEKY, MGSDKIHHHHHHMALDQDGIQKVQKISTGIERLDDLFYGGFDRNDNVVVRGNNFSQKRSFIYSFIKKSANSGIGVVLVDFDFPSEGIMADLVRSGTNTDMVHILDGFAKPFQISAPSNTEMLDDPGNIPSVLKQITSTVQKMDEYVFVMLSATRYLIAKDQNTDRFFVQLINMNRKRSLVSIYAVDDFVPEDRSEWFAYLMDSALHFRNAGARAYLRVLTLKRIRTKEWVRIYPEEGTFTLGSFNVERIK, MGSDKIHHHHHHMALEDKDLRSIQEVRNLIESANKAQKELAAMSQQQIDTIVKAIADAGYDAREKLAKMAHEETGFGIWQDKVIKNVFASKHVYNYIKDMKTIGMLKEDNEKKVMEVAVPLGVVAGLIPSTNPTSTVIYKTLISIKAGNSIVFSPHPNALKAILETVRIISEAAEKAGCPKGAISCMTVPTIQGTDQLMKHKDTAVILATGGSAMVKAAYSSGTPAIGVGPGNGPAFIERSANIPRAVKHILDSKTFDNGTICASEQSVVVERVNKEAVIAEFRKQGAHFLSDAEAVQLGKFILRPNGSMNPAIVGKSVQHIANLAGLTVPADARVLIAEETKVGAKIPYSREKLAPILAFYTAETWQEACELSMDILYHEGAGHTLIIHSEDKEIIREFALKKPVSRLLVNTPGALGGIGATTNLVPALTLGCGAVGGSSSSDNIGPENLFNIRRIATGVLELEDIRKEENQATPELSVDADALIQSLVEKVLAELK, MGSDKIHHHHHHMALGHRVKEAREFRSLKQGELAELIGWTQQALSTLENRDSKKSSYSAQISKALDIDIDWLISGAGEMINTKKEAKSAKKLIKYVPVKGSAQMGDNGFWSELDYMGAGGDGYLEVNNASDSAYVIRAVGDSMFPAIRSGWYIVFDPSREACSGEYVHIVLKDGRNMVKEYVSCQHGIVNLISVNGMERISFNCEDVDVLNPFVEIQPPSRLRDDLDLFDTKCEEM, MGSDKIHHHHHHMALIIAGERSGVGKTTTTLTLLAALKARQASVQSFKVGPDYIDPMFHRFVTGRDCRNLDPILTDEDYVQHCFQQHSQTADYTLVEGVMGLFDGLTGKTDTASTAHIARILNLPILLVLNCSSTARSIAAIAYGYQNFDSRLKIAGLVLNRVGSDRHLELLKDALEPLEIPILGVLRRQDEIQIPDRHLGLIPTSELPHLQSVIDRLAVLGQQCFDWNRLEPLLSNSDLNSTAFKSTTPSISLKSSVPIAIARDRAFNFYYADNFDLLRAAGAELIEWSPLQDRQLPAGVQGLYLGGGFPEVFAAELSDNLLARQAVQTAITQGIPCYAECGGLMYLCQHIIDFEQTQYPMVGAIAATAQMGSRLTLGYREATAQQASPLLQKGQVVWGHEFHRSSLREPIAQPLFQLQNFDGSLHYGEGYSQPNLHASYLHLHFGGKPWLIQNFLQACQQATALSR, MGSDKIHHHHHHMALLEVTDLSQSFADRKLYDDANFTLERADHMGIVGQNGAGKSTLIKILTGQILPLSGQIKWQRNVRTGYLDQYADIPAGMTLYAFLKTAFQRLYDLDAQMQQLYADYAEKMDDQLLERAGRIQETLEANNFYDVETEMERVITGLGLDEIGRDHVISEMSGGQRSKIILAKLLLENPDVIILDEPTNYLDTAHISWLEDYLNGFEGAVMVISHDYDFLQQVTNCICDVAFGKIIKYRGDFKAAMRQKEARKEAQLKAFEKQQVVIEKAEKFIRKNKAGSKSTMAKSREKMLSHLDRVDPPSENEHAKFAFPYLDTGSQNALSVTKLSVGYGKPLLEPVTFTMTNGEKLAFKGFNGVGKSTLIKSILGVIPALSGKSDFSPSAKINYFNQDLEWDNPQLTPLQTIQNEYPTMLPKTIRTKLAKCGINAANAMKPMHLLSGGEQTKVKLALLELVPSNFLIMDEPTNHLDDETKEGLKRALQAFQGNLILVSHESSFVNGWVDKELNVEKLSLKERQG, MGSDKIHHHHHHMALVALPGGGAVDPAFWSVQAAEDFEQEIVDQYALAMAAAGLSDSHIRNTRSTIIEFARSVTGPLWAATCQDADRFLAEQRRLGRSVSTRAGKAGTLALFYEFMISRYQGRIHRLTGVLVEQPIDEFNRQAGASLGKVRVPPSDAEIDAFFTCWRHSIPQARKYLPAARDYFAASLWRRLGLRITETVMLDIRDWRPDLGGFGKLHVRYGKGAHGRGPKPRLVPAINGAAELIDWWLGDVRHRYGEDWADPDAPLLPSERFDRELGRCGRVGGNALRRSLGLQVDQWLPAWSGRMTPHVLRHYCASSLYGAGMDIKALQELLGHQWLSTTSGYIHVRSEHVEQAWKNANERVESRFATTQKEG, MGSDKIHHHHHHMANLLTINHLSYSRNLQLILKDLNLELPYGQIVGLLGTNGAGKTTLMRLIAGNYIDRKNSISINTETNSAVRKSLVSFTEQVGGWSGHPRIFKIGNFYDALYEDFNLTTFNQLLSNLNLSPDQRVNQLSKGNFRKLVIAVTLARQTDLYLLDEPFDGIDSMTRKKIISSIIQWKPENATVLVSDHHVGDIANLLDQVVIIKDQHVAAQEAADTIRETLGKDIETYYEDFYREEL, MGSDKIHHHHHHMAPDTSMSSRDALPPLACLRAFEAAARHASFTQAGSELHLTQSAVSRQIKRLEDDLGRPLFERHYEGLRLTPAGERYFGVVQRLLRDLRDETARLRRRGDDRQLTLASSPTIASIWLARQLPDFQRAHPHIEIRILTVEDPHRLDLAEFDLGIYYHVPHEVDPPGLDAEAIFSHEEVAAVCSPAYLARHGDIRDADDLLARHTLMVVEDHYHDWLTWEGWYQAQNLAWRTPEHSLRANSFQLLMNAILAGQGVTLGWTRLLAADLAQHNLVQALPHTLPSRGRLSLLTPQHRHLTEPMRAFRAWVLGPA, MGSDKIHHHHHHMAQRSILVGQIWHEGHSFNPILTREKDFLFLRGEAVLEEARASSTALSGIVKTAEALGYRCVPSISARARPGGAIEQKVFDNIVDEFVQAARMQDFDAICLDLHGATLAEHTLDTEGYLLSRLREVVGNDIMISLALDLHAYLTPQMVEQATIITSFRTTPHADIEETGVRAMTLLDSLSNETRPPRAIYSLIPFLTRGNDETWSGPLAEIGAAADRWRARSDVVDLSIFNVHPFLDVPGYGQVVLAYDNGSGAAIDACRDLSDMLWKARDEFQEQLMSVDKALEIARTSRQLLALGDQGDRVMGAGPGDSPEIARVALEHFPGLKVAVPVYDPQAVRTAREAGENATVRMAVGGAFTHSVAPLERDWTVRKLCRARFTNIGPYMAGTEADFGDAAVLTCDAVTVIVTTMAPNVHDPAFYEAVGVPLASQQAVVARAANHYKLSFADIARTITVDTPGLTAFKPHQFPFTQARPFYPLDIVQWSFAPLECNKVG
